The target of the assay is SARS-COV-2 RBD extracellular domain expressed with a C-terminal myc-myc-hexahistidine tag (SARS-CoV-2). The assay is described as follows: SPR (Biacore), mAb captured by anti-human Fc, RBD-mmH in solution, 25 C.

We go through 18 molecules from patent US20260069689A1 (Regeneron, published 2026).

Numbering of substitutions follows the chain as printed.

B1: mAb15161 (antibody, V domains shown)
VH: EVQLVESGGGLVQPGGSLRLSCAASGFTFSSYEMNWVRQAPGKGLEWVSYISSSGSILYYADSVKGRFTASRDNAKNSLYLQMNSLRAEDTGVYYCARREYQLLRPFEFWGQGTLVTVSS
VL: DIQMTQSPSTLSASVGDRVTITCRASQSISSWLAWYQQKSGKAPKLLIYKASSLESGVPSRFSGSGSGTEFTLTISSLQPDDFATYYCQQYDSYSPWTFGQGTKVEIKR
B1 gave a dissociation constant (Kd) of 1.35 nM, a koff of 0.000234 s⁻¹, a kon of 173000 M⁻¹ s⁻¹ and a t½ of 49.3 min.

B2: mAb13458 (antibody, V domains shown)
VH: EVQLVESGGGLVQPGRSLRLSCAASGFTFDDYAMHWVRQAPGKGLEWVSGISWNSGSIGYADSVKGRFTISRDNAKNSLYLQMNSLRAEDTALYYCAKDIGITTPYWGQGTLVTVSS
VL: AIQMTQSPSSLSASVGDRVTITCRASQDIRNDLGWYQQKPGKAPKLLIYSASSLQTGVPSRFSGSGSGTDFTLTISSLHPEDFATYYCLQDYWYTWTFGQGTKVEIKR
The molecule B2 returned a dissociation constant (Kd) of 1.53 nM, a koff of 0.00139 s⁻¹, a kon of 909000 M⁻¹ s⁻¹ and a t½ of 8.3 min.

B3: mAb13459 (antibody, V domains shown)
VH: B2 VH
VL: B2 VL with W93N, T95V
Regarding B3, the Kd was found to be 2.51 nM, the koff came to 0.00174 s⁻¹, the kon is 693000 M⁻¹ s⁻¹ and the t½ turned out to be 6.6 min.

B4: mAb14313 (antibody, V domains shown)
VH: EVQLVESGGGLVQPGRSLRLSCVASGFTFDDSAMHWVRQPPGKGLEWVSGISWNSGIIGYAESVKGRFIISRDNAKNSLFLHMRGLRPEDTAVYYCARDRLELSYYYYGMDVWGQGTTVTVSS
VL: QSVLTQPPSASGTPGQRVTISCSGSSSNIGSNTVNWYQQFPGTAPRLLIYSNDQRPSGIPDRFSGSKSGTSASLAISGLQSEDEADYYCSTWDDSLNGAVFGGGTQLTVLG
The molecule B4 yielded an equilibrium dissociation constant (Kd) of 1.53 nM, a koff of 0.00217 s⁻¹, an on-rate (kon) of 1.42e+06 M⁻¹ s⁻¹ and a t½ of 5.3 min.

B5: mAb14284 (antibody, V domains shown)
VH: QITLKESGPTLVKPTQTLTLTCTFSGFSFSTSGVGVGWIRQPPGKTLEWLALIYWDDDKRYSPSLKSRLTITKDTSKNQVVLTMTNMDPVDTATYFCAHHGIPTIFGYWGQGALVTVSS
VL: QSALTQPASVSGSPGQSITISCTGTSSDLGVFNYVSWYQQHPGKAPKLMIYEVTNRPSGVSNRFSGSKSGNTASLTISGLQAEDEADYYCSSYTTSSTVFGGGTKLTVLG
As for B5, the dissociation constant (Kd) was 0.824 nM, the koff came to 0.000549 s⁻¹, the kon stood at 666000 M⁻¹ s⁻¹ and the t½ was 21 min.

B6: mAb14235 (antibody, V domains shown)
VH: QITLKESGPTLVKPTQTLTLTCTFSGFSLNTGGVGVGWIRQPPGNALEWLALIYWDDDKRYNPSLKTRLTISKDTSKNQVVLTMTNMDPVDTATYFCAHLTIAVIVDFWGQGTLVTVSS
VL: B5 VL with G24A, L29V, V31T, F32Y, Y38F, Q40H, S96T, T98I
Consider B6, for which the Kd worked out at 1.33 nM, the koff was 0.00105 s⁻¹, the kon was 789000 M⁻¹ s⁻¹ and the t½ came out at 11 min.

B7: mAb14289 (antibody, V domains shown)
VH: QVQLVQSGPEVKKPGASVKVSCKASGYTFTSYAISWVRQAPGQGLEWMGWISAYNGNTNYAQKLQGRVTMTTDTFTSTAYMELRSLRSDDTAVYYCAVPADHITFDYWGQGTLVTVSS
VL: EIVLTQSPGTLSLSPGERATLSCRASQSVSSYLAWYQQKPGQAPRLLIHGASSRATGIPDRFSGSGSGTDFTLTISRLEPEDFAVYYCQQYGSSFLTFGGGTKVEIKR
Regarding B7, binding was characterised by a dissociation constant (Kd) of 1.36 nM, the off-rate constant (koff) stood at 0.00158 s⁻¹, the kon came to 1.16e+06 M⁻¹ s⁻¹ and the t½ amounted to 7.3 min.

B8: mAb15164 (antibody, V domains shown)
VH: EVQLVESGGGLVQPGGSLRLSCAASGFAVSSNYMTWVRQAPGKGLEWVATIYSGDSTYYADSVKGRFTISRHNSKNTLSLQMNSLRADDTAIYYCARLSGVLSGTYNGAFDIWGQGTMVTVSS
VL: QSALTQPASVSGSPGQSITISCTGTSSDFGNYNIVSWYQQHPGQAPKVMIYEGNKRPSGVSNRFSGSKSGHTASLTISGLQAEDEADYYCSSYAGSSTWVFGGGTKLTVLG
Molecule B8 came in with a Kd of 1.53 nM, a koff of 0.000349 s⁻¹, a kon of 228000 M⁻¹ s⁻¹ and a t½ of 33.1 min.

B9: mAb15165 (antibody, V domains shown)
VH: EVQLVESGGGLVQPGGSLRLSCAASGFTVSSNYMSWVRQAPGKGLEWVSAIYSGDSTYYADSVKGRFTISKDNSKNTLYLQMNSLRGEDTAVYYCARLGGALQAYDGAFDYWGQGTLATVSS
VL: B8 VL with N31S, I34L, Q44K, V48L, N62I, H71N
B9 registered a Kd of 0.393 nM, an off-rate (koff) of 0.000212 s⁻¹, a kon of 539000 M⁻¹ s⁻¹ and a t½ of 54.6 min.

B10: mAb15166 (antibody, V domains shown)
VH: EVQLVESGGGLVQPGGSLRLSCAASGFTVTSNYMSWVRQAPGKGLEWVSAIYSGESTYYADSVKGRFTISRDSSKNTLYLQMNSLRVEDTAVYYCASIHDYSNYVGGFDPWGQGTLVTVSS
VL: B8 VL with T25P, N31S, I34L, Q44K, V48L, N54T, H71N
Take B10: the affinity, expressed as Kd, was 21.7 nM; the koff was determined as 0.00535 s⁻¹; the kon was 246000 M⁻¹ s⁻¹; the t½ amounted to 2.2 min.

B11: mAb14294 (antibody, V domains shown)
VH: EVQLVESGGGLVQPGGSLRLSCAASGFTFSNHWMDWVRQAPGKGLVWVSRINSDGSSTDYADSVRGRFTMSRDNAKNTLYLQMSSLRAEDTAVYYCAREGMIFGAVIIPGWYFDLWGRGALVTVSS
VL: EIVLTQSPGTLSLSPGERATLSCRASQSVSSSQLAWYQQKPGQAPRLLIYGASSRATGIPDRFSGSGSGTDFTLTISRLEPEDFAVYYCQQYDSFGQGTKLEIKR
As to B11, binding was put at a Kd of 0.914 nM, the koff was 0.000548 s⁻¹, the kon was 600000 M⁻¹ s⁻¹ and the t½ was 21.1 min.

B12: mAb15170 (antibody, V domains shown)
VH: EVQLVESGGGLVQPGGSLRLSCAATGITVSSNYMSWVRQAPGKGLEWVSLIYSGGSTFYADSVKGRFTISRHNSKNTLYLQMSSLRAEDTAVYYCARDLVDFGMDVWGQGTTVTVSS
VL: DIQLTQSPSSLSASVGDRVTITCRASQGISNYLAWYQQKPGKAPKLLIYAASTLQSGVPSRFSGSGSGTDFTLTISSLQPEDFGTYYCQQLNSDSPTFGQGTKVEIKR
With B12, the Kd was found to be 0.1 nM, the off-rate (koff) worked out at 1.53e-05 s⁻¹, the kon amounted to 200000 M⁻¹ s⁻¹ and the t½ was 756 min.

B13: mAb14283 (antibody, V domains shown)
VH: QVQLQESGPGLVKPSGTLSLTCDVSGGSISSNNWWSWVRQRPGKGLQWIGEIYHNENTNYNPSLKSRVIMSIDKSKNQFSLKLTSVTAADTAVYYCARGDVLDWFDPWGQGTLVTVSS
VL: QSALTQPASVSGSPGQSTTISCTGTSSDVGGYNYVSWYQQYPGKAPKLMIYDVTNRPSGVSHRFSGSKSGNTASLTISGLQAEDEADYYCSSYTSSSTVIFGGGTKLTVLG
B13 returned a Kd of 1.08 nM, an off-rate (koff) of 0.00158 s⁻¹, an on-rate constant (kon) of 1.46e+06 M⁻¹ s⁻¹ and a t½ of 7.3 min.

B14: mAb15150 (antibody, V domains shown)
VH: EVQLVETGGGLIQPGGSLRLSCAAPGFIVSSNYMSWVRQAPGKGLEWVSLLYPGGSTYYADSVKGRFTISRDNSKNTLYLQMNSLRADDTAVYYCARVLPIVEDHFDYWGQGTLVTVSS
VL: DIQLTQSPSFLSASVGDRVTITCRASQGMSSYLAWYQKKPGKAPKLLIYGATILQSGVPSRFSGSGSGTEFTLTISSLQPEDFATYYCQQLNSDPLYMYTFGQGTKLEIKR
For the molecule B14, the affinity, expressed as Kd, was 0.0594 nM; the off-rate constant (koff) came out at 4.61e-05 s⁻¹; the kon worked out at 774000 M⁻¹ s⁻¹; the t½ came to 251 min.

B15: mAb15163 (antibody, V domains shown)
VH: EVQLVETGGGLIQPGESLRLSCAASGFIVSTNYMNWVRQAPGKGLEWVSVIYRGGSTYYADSVKGRFTISRDNSKNTLFLQMNSLRAEDTAVYYCARGHEDFDYDTPASGAFDIWGQGTMVTVSS
VL: QSALTQPPSASGSPGQSVTISCTGTSSDVGGHNYVSWYQQHPGKAPKVMIYEVSKRPSGVPDRFSGSKSGNTASLTVSGLQAEDEADYYCSSYAGSNKFVFGTGTKVTVLG
Consider B15, for which binding was put at a Kd of 0.0779 nM, the koff stood at 1.67e-05 s⁻¹, the on-rate constant (kon) worked out at 218000 M⁻¹ s⁻¹ and the t½ amounted to 693 min.

B16: mAb15162 (antibody, V domains shown)
VH: EVQLVETGGGLIQPGGSLRLSCAASEFIVSRNYMSWVRQAPGKGLEWVSLIYSGGSTYYADSVKGRFTISRDNSKNILYLQMNSLRAEDTAVYYCARDRGGISDYWGQGTLVTVSS
VL: DIQMTQSPSSLSASVGDRVTITCQASQDINKYLNWFQQKPGKAPKLLIYDASNLETGVPSRFSGSGSGTDFTFTISSLQPEDIATYYCQQYDNLPRTFGQGTKLEIKR
Molecule B16 registered a Kd of 7.3 nM, a koff of 0.00085 s⁻¹, a kon of 116000 M⁻¹ s⁻¹ and a t½ of 13.6 min.

B17: mAb14258 (antibody, V domains shown)
VH: QLQLQESGPGLVKPSETLSLICTGSGDSISSSHYYWGWIRQPPGKGLEWIGSTYFSGSTYYNPSLKSRVSISVDTSKNQVSLKLISVTAADTAVYYCAREMGATLGDYWGPGTLVTVSS
VL: QSVLTQPPSASGTPGQRVTISCSGSSSNIGNNYVYWYQQFPGTTPRLLIYRNNERPSGVPDRFSGSKSGTSASLVISGLRSEDEADYYCAAWDDSLSAHYVFGTGTKVTVLG
B17 returned a Kd of 0.854 nM, a koff of 0.00161 s⁻¹, an on-rate (kon) of 1.89e+06 M⁻¹ s⁻¹ and a t½ of 7.2 min.

B18: mAb15151 (antibody, V domains shown)
VH: QVQLVESGGGVVQPGRSLRLSCAASGFVFNSYGMHWVRQAPGKGLEWVAVLWYEGSKNYYADSVKGRFTISRDNSKNTLYLQMNSLRAEDTAVYYCARHGSGSFFGYYLDYWGQGTLVTVSS
VL: DIQMTQSPSSLSASVGDRVTITCRASHNINDFLNWYQQKPGKAPRLLIYAASSLQSGVPSRFSGSGSGTDFTLTISSLQPEDFATYYCQESYTTPPTFGQGTKLEIKR
Consider B18, for which the affinity, expressed as Kd, was 3.89 nM; the koff amounted to 0.000778 s⁻¹; the on-rate (kon) was found to be 200000 M⁻¹ s⁻¹; the t½ was found to be 14.8 min.
